What was measured:
[1] = target: mouse Mcl-1 with truncations of 151 amino acid residues at its N-terminus and 23 residues at its C-terminus (mouse) (UniProt P97287); assay: competition phage ELISA
[2] = target: Recombinant human Bcl-xL with a 25 amino acid truncation of its C-terminus (human) (UniProt Q07817); assay: competition phage ELISA
Sequence of Recombinant human Bcl-xL with a 25 amino acid truncation of its C-terminus (human) (Q07817 1-208): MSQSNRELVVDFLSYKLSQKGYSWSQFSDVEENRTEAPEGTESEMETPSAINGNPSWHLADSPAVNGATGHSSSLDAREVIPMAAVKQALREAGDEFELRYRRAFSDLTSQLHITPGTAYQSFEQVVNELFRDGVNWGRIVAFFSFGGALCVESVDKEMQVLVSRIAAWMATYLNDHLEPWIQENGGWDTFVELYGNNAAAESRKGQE

Sequence of mouse Mcl-1 with truncations of 151 amino acid residues at its N-terminus and 23 residues at its C-terminus (mouse) (P97287 152-308): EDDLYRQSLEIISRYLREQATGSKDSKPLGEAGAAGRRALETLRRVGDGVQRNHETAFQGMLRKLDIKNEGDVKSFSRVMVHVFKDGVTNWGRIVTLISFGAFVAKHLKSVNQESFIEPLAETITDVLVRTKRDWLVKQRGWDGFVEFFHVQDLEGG

QEDIIRNIARHLAQVGDSMDASIPPG [Bid BH3 R21A, phage-displayed]
Fold/wt [1]: 1 fold | IC50 [1]: 132 nM | Fold/wt [2]: 3 fold | IC50 [2]: 32 nM

QEDIIRNIARALAQVGDSMDRSIPPG [Bid BH3 H11A, phage-displayed]
Fold/wt [1]: 1 fold | IC50 [1]: 89 nM | Fold/wt [2]: 1 fold | IC50 [2]: 9 nM

QEDIIRNIARHLAAVGDSMDRSIPPG [Bid BH3 Q14A, phage-displayed]
Fold/wt [1]: 1 fold | IC50 [1]: 124 nM | Fold/wt [2]: 1 fold | IC50 [2]: 13 nM

QEDIIANIARHLAQVGDSMDRSIPPG [Bid BH3 R6A, phage-displayed]
Fold/wt [1]: 1 fold | IC50 [1]: 88 nM | Fold/wt [2]: 3 fold | IC50 [2]: 31 nM

QEDIIRNIARHLAQVGDSMARSIPPG [Bid BH3 D20A, phage-displayed]
Fold/wt [1]: 1 fold | IC50 [1]: 84 nM | Fold/wt [2]: 1 fold | IC50 [2]: 13 nM

QEDIARNIARHLAQVGDSMDRSIPPG [Bid BH3 I5A, phage-displayed]
Fold/wt [1]: 1 fold | IC50 [1]: 144 nM | Fold/wt [2]: 2 fold | IC50 [2]: 21 nM

QEDIIRNIARHLAQVGDSMDRSAPPG [Bid BH3 I23A, phage-displayed]
Fold/wt [1]: 1 fold | IC50 [1]: 142 nM | Fold/wt [2]: 1 fold | IC50 [2]: 15 nM

QEDIIRNIARHLAQVGDSMDRAIPPG [Bid BH3 S22A, phage-displayed]
Fold/wt [1]: 1 fold | IC50 [1]: 128 nM | Fold/wt [2]: 1 fold | IC50 [2]: 13 nM

QEAIIRNIARHLAQVGDSMDRSIPPG [Bid BH3 D3A, phage-displayed]
Fold/wt [1]: 1 fold | IC50 [1]: 96 nM | Fold/wt [2]: 1 fold | IC50 [2]: 15 nM

AEDIIRNIARHLAQVGDSMDRSIPPG [Bid BH3 Q1A, phage-displayed]
Fold/wt [1]: 1 fold | IC50 [1]: 79 nM | Fold/wt [2]: 2 fold | IC50 [2]: 24 nM

QEDIIRNIARHLAQVGDSMDRSIPAG [Bid BH3 P25A, phage-displayed]
Fold/wt [1]: 1 fold | IC50 [1]: 87 nM | Fold/wt [2]: 1 fold | IC50 [2]: 16 nM

QEDIIRNIARHLAQVGDAMDRSIPPG [Bid BH3 S18A, phage-displayed]
Fold/wt [1]: 1 fold | IC50 [1]: 104 nM | Fold/wt [2]: 1 fold | IC50 [2]: 16 nM

QEDIIRNIAAHLAQVGDSMDRSIPPG [Bid BH3 R10A, phage-displayed]
Fold/wt [1]: 1 fold | IC50 [1]: 130 nM | Fold/wt [2]: 2 fold | IC50 [2]: 26 nM

QEDIIRAIARHLAQVGDSMDRSIPPG [Bid BH3 N7A, phage-displayed]
Fold/wt [1]: 1 fold | IC50 [1]: 54 nM | Fold/wt [2]: 1 fold | IC50 [2]: 10 nM

QADIIRNIARHLAQVGDSMDRSIPPG [Bid BH3 E2A, phage-displayed]
Fold/wt [1]: 1 fold | IC50 [1]: 140 nM | Fold/wt [2]: 1 fold | IC50 [2]: 12 nM

QEDAIRNIARHLAQVGDSMDRSIPPG [Bid BH3 I4A, phage-displayed]
Fold/wt [1]: 1 fold | IC50 [1]: 134 nM | Fold/wt [2]: 3 fold | IC50 [2]: 31 nM

QEDIIRNIARHLAQVGDSMDRSIAPG [Bid BH3 P24A, phage-displayed]
Fold/wt [1]: 1 fold | IC50 [1]: 90 nM | Fold/wt [2]: 1 fold | IC50 [2]: 14 nM

Source: patent publication US20090048164A1
